Laboratory results from US20240118272A1.

How the values were obtained:
[1] = molecular target: CD63(ECD)-ALP conjugate (human; bovine); test: HI-1000 capture immunoassay; calibrator C1, 1.43 mU/L; run 1
[2] = molecular target: CD63(ECD)-ALP conjugate (human; bovine); test: HI-1000 capture immunoassay; calibrator C4, 313 ng/mL; mean of 3
[3] = molecular target: CD63(ECD)-ALP conjugate (human; bovine); test: HI-1000 capture immunoassay; calibrator C2, 5.71 mU/L; run 2
[4] = molecular target: CD63(ECD)-ALP conjugate (human; bovine); test: HI-1000 capture immunoassay; calibrator C2, 12.5 ng/mL; run 3
[5] = molecular target: CD63(ECD)-ALP conjugate (human; bovine); test: HI-1000 capture immunoassay; calibrator C3, 22.84 mU/L; run 3
[6] = molecular target: CD63(ECD)-ALP conjugate (human; bovine); test: HI-1000 capture immunoassay; calibrator C1, 2.5 ng/mL; mean of 3
[7] = molecular target: CD63(ECD)-ALP conjugate (human; bovine); test: HI-1000 capture immunoassay; calibrator C3, 22.84 mU/L; run 2
[8] = molecular target: CD63(ECD)-ALP conjugate (human; bovine); test: HI-1000 capture immunoassay; calibrator C3, 62.5 ng/mL; run 1
[9] = molecular target: CD63(ECD)-ALP conjugate (human; bovine); test: HI-1000 capture immunoassay; calibrator C2, 5.71 mU/L; run 3
[10] = molecular target: CD63(ECD)-ALP conjugate (human; bovine); test: HI-1000 capture immunoassay; calibrator C2, 12.5 ng/mL; mean of 3
[11] = molecular target: CD63(ECD)-ALP conjugate (human; bovine); test: HI-1000 capture immunoassay; calibrator C3, 22.84 mU/L; run 1
[12] = molecular target: CD63(ECD)-ALP conjugate (human; bovine); test: HI-1000 capture immunoassay; calibrator C1, 2.5 ng/mL; run 1
[13] = molecular target: CD63(ECD)-ALP conjugate (human; bovine); test: HI-1000 capture immunoassay; calibrator C5, 1563 ng/mL; run 1
[14] = molecular target: CD63(ECD)-ALP conjugate (human; bovine); test: HI-1000 capture immunoassay; calibrator C3, 22.84 mU/L; mean of 3
[15] = molecular target: CD63(ECD)-ALP conjugate (human; bovine); test: HI-1000 capture immunoassay; calibrator C1, 2.5 ng/mL; run 3
[16] = molecular target: CD63(ECD)-ALP conjugate (human; bovine); test: HI-1000 capture immunoassay; calibrator C2, 5.71 mU/L; run 1
[17] = molecular target: CD63(ECD)-ALP conjugate (human; bovine); test: HI-1000 capture immunoassay; calibrator C4, 313 ng/mL; run 2
[18] = molecular target: CD63(ECD)-ALP conjugate (human; bovine); test: HI-1000 capture immunoassay; calibrator C4, 91.36 mU/L; mean of 3
[19] = molecular target: CD63(ECD)-ALP conjugate (human; bovine); test: HI-1000 capture immunoassay; calibrator C5, 365.43 mU/L; run 1
[20] = molecular target: CD63(ECD)-ALP conjugate (human; bovine); test: HI-1000 capture immunoassay; calibrator C4, 313 ng/mL; run 1
[21] = molecular target: CD63(ECD)-ALP conjugate (human; bovine); test: HI-1000 capture immunoassay; calibrator C4, 91.36 mU/L; run 3
[22] = molecular target: CD63(ECD)-ALP conjugate (human; bovine); test: HI-1000 capture immunoassay; calibrator C2, 12.5 ng/mL; run 1
[23] = molecular target: CD63(ECD)-ALP conjugate (human; bovine); test: HI-1000 capture immunoassay; calibrator C2, 12.5 ng/mL; run 2
[24] = molecular target: CD63(ECD)-ALP conjugate (human; bovine); test: HI-1000 capture immunoassay; calibrator C1, 1.43 mU/L; run 2
[25] = molecular target: CD63(ECD)-ALP conjugate (human; bovine); test: HI-1000 capture immunoassay; calibrator C5, 365.43 mU/L; mean of 3
[26] = molecular target: CD63(ECD)-ALP conjugate (human; bovine); test: HI-1000 capture immunoassay; calibrator C4, 313 ng/mL; run 3
[27] = molecular target: CD63(ECD)-ALP conjugate (human; bovine); test: HI-1000 capture immunoassay; calibrator C5, 1563 ng/mL; mean of 3
[28] = molecular target: CD63(ECD)-ALP conjugate (human; bovine); test: HI-1000 capture immunoassay; calibrator C3, 62.5 ng/mL; mean of 3
[29] = molecular target: CD63(ECD)-ALP conjugate (human; bovine); test: HI-1000 capture immunoassay; calibrator C5, 1563 ng/mL; run 2
[30] = molecular target: CD63(ECD)-ALP conjugate (human; bovine); test: HI-1000 capture immunoassay; calibrator C3, 62.5 ng/mL; run 2
[31] = molecular target: CD63(ECD)-ALP conjugate (human; bovine); test: HI-1000 capture immunoassay; calibrator C5, 365.43 mU/L; run 3
[32] = molecular target: CD63(ECD)-ALP conjugate (human; bovine); test: HI-1000 capture immunoassay; calibrator C5, 1563 ng/mL; run 3
[33] = molecular target: CD63(ECD)-ALP conjugate (human; bovine); test: HI-1000 capture immunoassay; calibrator C4, 91.36 mU/L; run 1
[34] = molecular target: CD63(ECD)-ALP conjugate (human; bovine); test: HI-1000 capture immunoassay; calibrator C4, 91.36 mU/L; run 2
[35] = molecular target: CD63(ECD)-ALP conjugate (human; bovine); test: HI-1000 capture immunoassay; calibrator C1, 1.43 mU/L; run 3
[36] = molecular target: CD63(ECD)-ALP conjugate (human; bovine); test: HI-1000 capture immunoassay; calibrator C1, 2.5 ng/mL; run 2
[37] = molecular target: CD63(ECD)-ALP conjugate (human; bovine); test: HI-1000 capture immunoassay; calibrator C2, 5.71 mU/L; mean of 3
[38] = molecular target: CD63(ECD)-ALP conjugate (human; bovine); test: HI-1000 capture immunoassay; calibrator C5, 365.43 mU/L; run 2
[39] = molecular target: CD63(ECD)-ALP conjugate (human; bovine); test: HI-1000 capture immunoassay; calibrator C3, 62.5 ng/mL; run 3
[40] = molecular target: CD63(ECD)-ALP conjugate (human; bovine); test: HI-1000 capture immunoassay; calibrator C1, 1.43 mU/L; mean of 3

Chain of CD63(ECD)-ALP conjugate (human; bovine) (chain, as listed by the source, chain 1 of 2): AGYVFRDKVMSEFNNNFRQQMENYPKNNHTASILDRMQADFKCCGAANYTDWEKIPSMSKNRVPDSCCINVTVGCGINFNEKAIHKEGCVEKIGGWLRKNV
Chain of CD63(ECD)-ALP conjugate (human; bovine) (P19111 20-506, chain 2 of 2): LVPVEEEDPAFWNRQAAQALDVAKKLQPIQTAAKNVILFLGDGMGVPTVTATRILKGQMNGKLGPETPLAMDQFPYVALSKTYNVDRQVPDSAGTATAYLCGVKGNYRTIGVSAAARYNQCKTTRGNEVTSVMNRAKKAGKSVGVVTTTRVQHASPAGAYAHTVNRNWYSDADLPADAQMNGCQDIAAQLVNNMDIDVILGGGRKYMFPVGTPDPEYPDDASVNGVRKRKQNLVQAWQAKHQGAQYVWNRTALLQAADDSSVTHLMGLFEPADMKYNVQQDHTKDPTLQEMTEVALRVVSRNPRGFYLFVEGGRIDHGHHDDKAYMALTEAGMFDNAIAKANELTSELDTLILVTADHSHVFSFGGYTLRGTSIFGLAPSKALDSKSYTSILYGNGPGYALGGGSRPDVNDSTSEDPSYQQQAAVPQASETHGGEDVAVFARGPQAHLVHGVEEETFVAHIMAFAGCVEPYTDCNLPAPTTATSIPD

- Count value [1]: 900 count
- Count (av) [2]: 41900 count
- Count value [3]: 2380 count
- Count [4]: 2260 count
- Count value [5]: 9080 count
- Count (av) [6]: 755 count
- Count value [7]: 9240 count
- Count [8]: 8690 count
- Count value [9]: 2240 count
- Count (av) [10]: 2180 count
- Count value [11]: 9140 count
- Count [12]: 770 count
- Count [13]: 218000 count
- Count value (av) [14]: 9160 count
- Count [15]: 743 count
- Count value [16]: 2260 count
- Count [17]: 41300 count
- Count value (av) [18]: 42600 count
- Count value [19]: 206000 count
- Count [20]: 41700 count
- Count value [21]: 42700 count
- Count [22]: 2160 count
- Count [23]: 2120 count
- Count value [24]: 871 count
- Count value (av) [25]: 208000 count
- Count [26]: 42800 count
- Count (av) [27]: 212000 count
- Count (av) [28]: 8810 count
- Count [29]: 205000 count
- Count [30]: 9250 count
- Count value [31]: 207000 count
- Count [32]: 213000 count
- Count value [33]: 43000 count
- Count value [34]: 42200 count
- Count value [35]: 916 count
- Count [36]: 751 count
- Count value (av) [37]: 2290 count
- Count value [38]: 212000 count
- Count [39]: 8490 count
- Count value (av) [40]: 896 count
Substance: anti-CD63 antibody (Clone: H5C6)
